# Measurements published in publication doi:10.1101/122184 (bioRxiv, 2017).
# Target: the molecule itself
# Test: crystal structure
protein,measurement,value
"BAR (bialaphos resistance; phosphinothricin acetyltransferase) from Streptomyces hygroscopicus (enzyme, UniProt P16426 1-183, looked up) MSPERRPADIRRATEADMPAVCTIVNHYIETSTVNFRTEPQEPQEWTDDLVRLRERYPWLVAEVDGEVAGIAYAGPWKARNAYDWTAESTVYVSPRHQRTGLGSTLYTHLLKSLEAQGFKSVVAVIGLPNDPSVRMHEALGYAPRGMLRAAGFKHGNWHDVGFWQLDFSLPVPPRPVLPVTEI",stoichiometry N,2
